Biological target: RecA (UniProt P0A7G6)
Details: FITC-avidin confocal microscopy, permeabilized HEp-2 nuclei in agarose, 37 C; no signal without recA or with BSA

Chain of RecA (P0A7G6 2-353): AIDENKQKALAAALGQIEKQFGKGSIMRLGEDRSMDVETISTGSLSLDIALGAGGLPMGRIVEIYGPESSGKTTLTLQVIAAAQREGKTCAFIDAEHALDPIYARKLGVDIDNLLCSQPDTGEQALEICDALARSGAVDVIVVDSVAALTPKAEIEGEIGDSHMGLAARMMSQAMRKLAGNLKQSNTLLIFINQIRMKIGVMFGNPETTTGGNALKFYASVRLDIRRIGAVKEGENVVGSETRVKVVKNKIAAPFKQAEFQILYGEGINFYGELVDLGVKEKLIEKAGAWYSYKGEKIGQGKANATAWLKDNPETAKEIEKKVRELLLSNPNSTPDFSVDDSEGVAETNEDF

“human chromosome 1 alpha-satellite targeting polynucleotides (nick-translated pUC 1.77, denatured)” was tested, and the binding (% nuclei with signal) was over 25.

Reference: patent US5763240
